Reference: article PMC9018708

What was measured:
[1] = target: Heparin Binding EGF Like Growth Factor (DT receptor) on Vero cells (African green monkey (endogenous in Vero))
[2] = target: human Heparin Binding EGF Like Growth Factor, overexpressed on ARN8 HBEGFKO cells (human) (UniProt Q99075)
[3] = target: Heparin Binding EGF Like Growth Factor, endogenous on ARN8 cells (human (endogenous in ARN8)) (UniProt Q99075)
[4] = target: Heparin Binding EGF Like Growth Factor (DT receptor) on Vero cells (African green monkey (endogenous in Vero)); remark: listed apart in the source

Substance	EC50 of toxicity toward Vero cells (dose titration) [1]	sensitivity (EC50), dose titration on +HBEGF ARN8 cells [2]	sensitivity (EC50), dose titration on WT ARN8 cells (HBEGFKO cells: 245 nM) [3]	sensitivity (EC50), dose titration on WT ARN8 cells (HBEGFKO cells: 55 nM) [3]	EC50 of inhibition of protein synthesis (nLucP assay) in Vero cells, overnight (18 h) incubation [4]	DT sensitivity (EC50), dose titration on +HBEGF ARN8 cells [2]	DT sensitivity (EC50), dose titration on WT ARN8 cells (HBEGFKO cells: N/A) [3]
DT(ATR), DT chimera with the R domain of Albireti Toxin	12 nM	608 nM	169 nM				
DT(PTR), DT chimera with the R domain of Peptono Toxin	7 nM	50 nM		25 nM			
Diphtheria toxin (from UniProt P00588 33-567) (natural protein)					0.00015 nM	0.00043 nM	0.026 nM
